Data on four variants can be found in FireProtDB (doi:10.1007/s00775-020-01777-0).

B1: Cytochrome c-553, B8C6L5 (parent)
chain: MKLTIVAALIASASAWTTPKSFESVKAAVAGAAVTAGVAVSPAFAGDVGAGEQIFNANCAACHAGGQNVIMPDKTLEKEALEQYLAGGRNEKAVMTQVTNGKNAMPAFGGRLSDEDIANVASYVIATSEAGWD

The variants in the data set derive from B1. Conditions: Thalassiosira pseudonana; pH 7.4; Thermal; UV/Vis spectroscopy; HEPES; transition: 2; reversible: > 90% (Yes); whole UniProt chain shown.

What is called Tm is the temperature at the midpoint of the melting transition. Turning to MKLTIVAALIASASAWTTPKSFESVKAAVAGAAVTAGVAVSPAFAGDVGAGEQIFNANCAACHAGGQNVIMPDKTLEKEALEQYLAGGRNEKSVMTQVTNGKNAMPAFGGRLSDEDIANVASYVISTSEAGWD, the Tm was 32.2 °C and the “unfolding enthalpy (van 't Hoff)” value turned out to be 160 kJ/mol.
MKLTIVAALIASASAWTTPKSFESVKAAVAGAAVTAGVAVSPAFAGDVGAGEQIFNANCAACHAGGQNVIMPDKTLEKEALEQYLAGGRNEKSVMTQVTNGKNAMPAFGGRLSDEDIANVASYVIATSEAGWD: the Tm is 35.4 °C and the “unfolding enthalpy (van 't Hoff)” value came out at 192 kJ/mol.
For the variant MKLTIVAALIASASAWTTPKSFESVKAAVAGAAVTAGVAVSPAFAGDVGAGEQIFNANCAACHAGGQNVIMPDKTLEKEALEQYLAGGRNEKAVMTQVTNGKNAMPAFGGRLSDEDIANVASYVISTSEAGWD, the Tm was 35.1 °C and the “unfolding enthalpy (van 't Hoff)” value turned out to be 171 kJ/mol.
In the case of MKLTIVAALIASASAWTTPKSFESVKAAVAGAAVTAGVAVSPAFAGDVGAGEQIFNANCAACHAGGQNVIMPDKTLEKEALEQYLSGGRNEKAVMTQVTNGKNAMPAFGGRLSDEDIANVASYVIATSEAGWD, the Tm is 38.9 °C and the “unfolding enthalpy (van 't Hoff)” value is 183 kJ/mol.
